Target: the molecule itself
Test: SDS-PAGE

B1: MBP-ΔN597 (human DISC1 amino acids 326-597 fused to maltose-binding protein) (domain or fragment, UniProt Q9NRI5 326-597, looked up)
chain: WDTLLRKWEPVLRDCLLRNRRQMEVISLRLKLQKLQEDAVENDDYDKAETLQQRLEDLEQEKISLHFQLPSRQPALSSFLGHLAAQVQAALRRGATQQASGDDTHTPLRMEPRLLEPTAQDSLHVSITRRDWLLQEKQQLQKEIEALQARMFVLEAKDQQLRREIEEQEQQLQWQGCDLTPLVGQLSLGQLQEVSKALQDTLASAGQIPFHAEPPETIRSLQERIKSLNLSLKEITTKVCMSEKFCSTLRKKVNDIETQLPALLEAKMHAIS
B1 was tested, and the “stoichiometry N” value was 2.

From paper PMC3392113 (Human Molecular Genetics, 2012)
